The text below walks through data of patent US7276370 (DONALD DANFORTH PLANT SCIENCE CENTER, dated 2007).

This series deals with the molecule itself. In words: EMSA, E. coli protein extract with 32P-labeled BoxIIml DNA probe; homodimer inferred from the shifted band. The protocol:
FIG. 5: Electrophoretic mobility shift assay (EMSA) of Rf2a and the 3Δ mutant of Rf2a. Oligonucleotides containing the BoxIIml sequences (Yin et al., 1997a) were used as ^32P-labeled probe or an unlabeled competitor in an EMSA with 500 ng of *E. coli* protein containing 3Δ protein or Rf2a. Unbound probe is located near the bottom of the gel. The band with the greatest mobility in lanes 1, 2, 4, and 5 indicated by x is presumed to result from binding with an uncharacterized protein that co-purifies with the target protein. Lane 1, protein prepared from *E. coli* without induction. Lane 2, reaction with extracts of *E. coli* that produce Rf2a. Lane 3, reaction with equimolar amounts of Rf2a and 3Δ plus 80× fold molar excess of unlabeled competitor probe relative to the labeled probe. Lane 4, reaction with equimolar amounts of Rf2a and 3Δ. Lane 5, reaction with 3Δ.
Electrophoretic mobility shift assays (EMSAs). EMSAs were carried out essentially as described by Yin and Beachy (7). 500 ng of *E. coli* protein extracts were incubated with 32_P labeled DNA probes comprising Box IIml that was constructed using annealed oligonucleotides (10). For competition EMSA, unlabeled oligonucleotides were added to the binding reactions at 80 fold molar excess relative to the labeled probe (see FIG. 5).

B1: Rf2a transcription factor (other)
chain: MNREKSPIPGDGGDGLPPQATRRAGPPAAAAAAEYDISRMPDFPTRNPGHRRAHSEILSLPEDLDLCAAGGGDGPSLSDENDEELFSMFLDVEKLNSTCGASSEAEAESSSAAAHGARPKHQHSLSMDESMSIKAEELVGASPGTEGMSSAEAKKAVSAVKLAELALVDPKRAKRIWANRQSAARSKERKMRYIAELERKVQTLQTEATTLSAQLALLQRDTSGLTTENSELKLRLQTMEQQVHLQDALNDTLKSEVQRLKVATGQMANGGGMMMNFGGMPHQFGGNQQMFQNNQAMQSMLAAHQLQQLQLHPQAQQQQVLHPQHQQQQPLHPLQAQQLQQAARDLKMKSPMGGQSQWGDGKSGSSGN
notes: The 5' primer encodes an extra Met-Glu-Lys before MNREKS; Crude E. coli protein extract was used in the EMSA; also called rice transcription factor Rf2a
Turning to B1, the binding result was “binds”.
